T1: C-reactive protein (human), P02741
T1 chain: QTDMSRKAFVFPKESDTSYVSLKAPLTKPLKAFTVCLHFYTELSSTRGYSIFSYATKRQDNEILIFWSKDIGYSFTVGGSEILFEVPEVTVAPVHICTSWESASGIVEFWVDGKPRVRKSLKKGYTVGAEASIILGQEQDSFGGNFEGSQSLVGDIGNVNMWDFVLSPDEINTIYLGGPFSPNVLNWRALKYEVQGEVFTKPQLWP


Columns and labels:
[1] = target: T1, C-reactive protein (human), P02741; assay: FACS; conditions: modification not given
[2] = target: T1, C-reactive protein (human), P02741; assay: FACS; conditions: modification not given

| Binder | Kd [1] | Kd [2] |
| --- | --- | --- |
| MIFNSRGFLSLMSSG [CRP-6] | 8 nM | – |
| FPIYNQRGFITLASP [CRP-2] | 3 nM | – |
| YPPRFQYYRFYYRGP [CRP-10] | 5 nM | – |
| EWACNDRGFNCQLQR [CRP-1] | 1.2 nM | 1 nM |

— patent US20160032279
